Results published in PMC5581011.
Like-named read-outs stand apart in the source and are kept apart here.

Experiments:
[1] = target: farletuzumab, humanized IgG1 monoclonal antibody to folate receptor alpha (human (humanized IgG1)); test: ELISA; unlabeled farletuzumab incubated alone or with sCA125 or HSA, probed with biotinylated CD16a, CD32a or CD64a; percent inhibition of Fc receptor binding compared to control
[2] = target: mesothelin on CHO-MSLN cells (UniProt Q13421); test: absorption (depletion) of sCA125 on cells; sCA125 preparation absorbed on CHO-MSLN cells or CHO-K1 parental cells; what is left in the supernatant
[3] = target: farletuzumab, humanized IgG1 monoclonal antibody to folate receptor alpha (human (humanized IgG1)); test: ELISA; unlabeled farletuzumab incubated alone or with sCA125 or HSA, probed with biotinylated CD16a, CD32a or CD64a; percent inhibition of Fc receptor binding compared to control; remark: listed apart in the source
gimsilumab (human) = test: ELISA; data not shown; rituximab and gimsilumab with sCA125, binding of CD16a-biotin
rituximab = test: as above

Sequence of farletuzumab, humanized IgG1 monoclonal antibody to folate receptor alpha (human (humanized IgG1)) (heavy, as listed by the source, chain 1 of 2): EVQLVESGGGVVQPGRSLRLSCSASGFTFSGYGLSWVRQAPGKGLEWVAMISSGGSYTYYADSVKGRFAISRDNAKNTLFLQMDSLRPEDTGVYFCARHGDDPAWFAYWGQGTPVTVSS
Sequence of farletuzumab, humanized IgG1 monoclonal antibody to folate receptor alpha (human (humanized IgG1)) (light, as listed by the source, chain 2 of 2): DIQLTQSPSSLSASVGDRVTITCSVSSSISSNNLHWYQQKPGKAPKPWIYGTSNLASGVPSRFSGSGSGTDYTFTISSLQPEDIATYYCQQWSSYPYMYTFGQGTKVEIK
Sequence of UniProt Q13421 (Q13421 other isoform, or with tags, fused parts or gaps): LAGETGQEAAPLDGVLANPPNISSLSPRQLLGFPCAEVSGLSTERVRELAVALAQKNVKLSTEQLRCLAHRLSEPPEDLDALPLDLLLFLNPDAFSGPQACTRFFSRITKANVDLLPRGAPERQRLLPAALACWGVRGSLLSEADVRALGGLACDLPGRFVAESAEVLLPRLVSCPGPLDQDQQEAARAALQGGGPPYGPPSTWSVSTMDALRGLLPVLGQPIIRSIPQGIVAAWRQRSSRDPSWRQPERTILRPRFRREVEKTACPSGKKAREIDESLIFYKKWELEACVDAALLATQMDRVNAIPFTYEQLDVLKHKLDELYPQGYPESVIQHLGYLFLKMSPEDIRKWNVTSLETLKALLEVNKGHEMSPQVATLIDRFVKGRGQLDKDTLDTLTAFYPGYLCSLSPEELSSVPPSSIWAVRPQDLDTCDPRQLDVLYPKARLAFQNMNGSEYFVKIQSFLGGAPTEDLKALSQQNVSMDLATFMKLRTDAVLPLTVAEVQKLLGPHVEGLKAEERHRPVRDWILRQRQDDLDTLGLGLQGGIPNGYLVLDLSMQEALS
Sequence of gimsilumab (human) (heavy, as listed by the source, chain 1 of 2): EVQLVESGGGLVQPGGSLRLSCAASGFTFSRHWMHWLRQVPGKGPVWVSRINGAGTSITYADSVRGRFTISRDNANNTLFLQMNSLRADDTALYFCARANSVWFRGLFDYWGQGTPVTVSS
Sequence of gimsilumab (human) (light, as listed by the source, chain 2 of 2): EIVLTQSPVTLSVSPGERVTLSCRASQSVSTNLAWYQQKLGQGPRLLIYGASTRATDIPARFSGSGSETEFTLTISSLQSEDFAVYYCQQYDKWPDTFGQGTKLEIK

percent inhibition of CD16a-biotin binding to farletuzumab [1]: 38 to 50% | percent of sCA125 removed by absorption on CHO-MSLN cells [2]: 98% | percent inhibition of CD16a-biotin binding to farletuzumab [3]: 46% | percent inhibition of CD32a-biotin binding to farletuzumab [3]: 12% | percent inhibition of CD16a-biotin binding to the antibody (gimsilumab (human)): < 50% | percent inhibition of CD16a-biotin binding to the antibody (rituximab): < 50%
Substance: soluble CA125 (sCA125), tumor-shed antigen CA125/MUC16 (from UniProt Q8WXI7 1-14507) (natural protein)
